Key:
[1] = biological target: SRP(∆FL), SRP(C235) labeled with DACM or acrylodan (E. coli) (UniProt P0AGD7); test: time course of acrylodan fluorescence
[2] = biological target: Cm-labeled RNC bearing the engineered signal sequence 1A9L; test: FRET or BRET
[3] = biological target: RNC bearing the nascent chain of FtsQ (UniProt P06136); test: fluorescence polarisation
[4] = biological target: RNC bearing the nascent chain of firefly luciferase (firefly) [luciferase: P08659]; test: fluorescence polarisation
RNC bearing the nascent chain of firefly luciferase (firefly) [luciferase: P08659], sequence (P08659 whole entry, looked up): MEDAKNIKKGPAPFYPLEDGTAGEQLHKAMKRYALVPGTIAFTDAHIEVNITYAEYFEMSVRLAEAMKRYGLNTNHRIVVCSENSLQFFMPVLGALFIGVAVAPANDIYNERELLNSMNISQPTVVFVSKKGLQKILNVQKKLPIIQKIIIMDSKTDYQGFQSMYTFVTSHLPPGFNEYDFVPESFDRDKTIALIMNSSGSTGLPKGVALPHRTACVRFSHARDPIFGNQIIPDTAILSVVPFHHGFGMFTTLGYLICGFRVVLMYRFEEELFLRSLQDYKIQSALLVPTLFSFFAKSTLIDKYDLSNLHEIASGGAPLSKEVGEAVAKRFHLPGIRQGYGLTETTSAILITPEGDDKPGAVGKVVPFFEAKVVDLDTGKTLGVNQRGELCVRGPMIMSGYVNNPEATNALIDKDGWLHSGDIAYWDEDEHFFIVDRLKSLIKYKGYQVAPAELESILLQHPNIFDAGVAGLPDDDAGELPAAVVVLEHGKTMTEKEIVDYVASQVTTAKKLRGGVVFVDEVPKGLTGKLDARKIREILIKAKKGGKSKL

RNC bearing the nascent chain of FtsQ, sequence (P06136 whole entry, looked up): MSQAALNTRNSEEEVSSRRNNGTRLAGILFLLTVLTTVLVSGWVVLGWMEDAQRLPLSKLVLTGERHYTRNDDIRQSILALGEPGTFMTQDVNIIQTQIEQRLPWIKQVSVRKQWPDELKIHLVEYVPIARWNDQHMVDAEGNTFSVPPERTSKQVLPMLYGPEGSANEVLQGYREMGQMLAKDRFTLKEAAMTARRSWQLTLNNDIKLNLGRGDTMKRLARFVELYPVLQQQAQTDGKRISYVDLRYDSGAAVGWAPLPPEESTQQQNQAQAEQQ

| Substance | fold weaker Kd (koff/kon) against wild-type SRP [2] | fold change of Kd against wild-type SRP [3] | further results |
| --- | --- | --- | --- |
| FtsY (from UniProt P10121 1-497) (receptor) | – | – | fold slower dissociation rate constant against wild-type SRP [1]: 80 fold |
| SRP(∆FL) with BODIPY-FL labeled at residue 421 of Ffh (from UniProt P0AGD7 1-453) (complex) | 2 fold | – | – |
| wild-type SRP with fluorescein-labeled Ffh(C421) (from UniProt P0AGD7 1-453) (complex) | – | – | Kd [3]: 1.7 nM; Kd [4]: 128 nM |

More lines, main results first:

| fold weaker Kd (koff/kon) against wild-type SRP [2] | fold change of Kd against wild-type SRP [3] | Substance | further results |
| --- | --- | --- | --- |
| 6 fold | – | SRP(LM→AA) with BODIPY-FL labeled at residue 421 of Ffh (from UniProt P0AGD7 1-453) (complex) | – |
| – | < 3 fold | SRP(LM→AA) with fluorescein-labeled Ffh(C421) (from UniProt P0AGD7 1-453) (complex) | – |
| – | < 3 fold | SRP(∆FL) with fluorescein-labeled Ffh(C421) (from UniProt P0AGD7 1-453) (complex) | – |

Reference: article PMC3541965
